These results are taken from patent US20200123239A1 (PROTHENA BIOSCIENCES, published 2020).

Numbering of substitutions follows the chain as printed.

The target in assay [1] is recombinant purified hTau-P301L (human) (UniProt P10636). Briefly: SPR (Biacore T200), antibody captured on anti-human or anti-mouse antibody, hTau-P301L as analyte.
Assay [2] addresses T1, Δ5-24 deletion mutant of tau (rTau) (human, UniProt P10636-6 1-383).
T1 construct: Deletion mutagenesis of rTau; Tested as clarified bacterial lysate on Western blots; also called A5-24
Briefly: Western blot of bacterial lysate, stained with 16B5 at 0.2 ug/mL.
Method: (§1) To control for sample loading, Tau46, an antibody with specificity for the C-terminal region of tau (C-terminal epitope), was used to stain duplicate blots. Both antibodies were used at a concentration of 0.2 μg/mL. Images were captured using a Licor Odyssey fluorescent scanner. The following deletion mutants of tau were made and analyzed in this manner: Δ5-24, Δ23-32, Δ25-44, Δ30-39, and Δ37-46.

Assay [3] deals with T2, human tau with 4 microtubule binding repeats and no N-terminal inserts, containing a P301L mutation (rTau) (human, UniProt P10636 2-758).
T2 construct: Expressed in E. coli and purified; also called full-length Tau; wild-type Tau (WT) on the blots
The assay is described as above.
Method: as §1

Assay [4] deals with T3, tau peptide fragment, residues 24-44 of SEQ ID NO: 1 (human).
T3 construct: Proteolytic fragment (trypsin digest) of rTau, precipitated with 16B5 and identified by MALDI-TOF/TOF
T3 peptide: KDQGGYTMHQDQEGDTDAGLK
The experiment in a line: precipitation of digest fragments with 16B5, HPLC, MALDI-TOF/TOF (trypsin digest).
Method: (§2) The human tau sequence with 4 microtubule binding repeats and no N-terminal inserts, and containing a P301L mutation (rTau), was expressed in E. coli and purified. […] Enzymatic digests of 200 ug of tau were carried out with one of four different proteases: trypsin (which cleaves at the carboxyl end of arginine and lysine), chymotrypsin (which primarily cleaves at the carboxyl end of tyrosine, tryptophan, phenylalanine and leucine), LysC (which cleaves at the carboxyl end of lysine), or GluC (which cleaves after glutamate residues and rarely after aspartate residues). All proteases were obtained from Thermo Scientific, and digests were performed for 16 h at 37° C. […] Precipitates were thoroughly washed in PBS containing 300 mM NaCl and 0.5% NP-40, then eluted with 1M NaCl in 100 mM glycine, pH 2.8. Eluates were dried under vacuum and resuspended in 0.1% trifluoroacetic acid (TFA). […] Peak fractions were collected, dried and resuspended in distilled water. Peptide masses and identities were determined by MALDI-TOF/TOF.

The target in assay [5] is T4, Δ30-39 deletion mutant of tau (rTau) (human, UniProt P10636 1-758).
T4 construct: Deletion mutagenesis of rTau; Tested as clarified bacterial lysate on Western blots; also called A30-39
The experiment in a line: Western blot of bacterial lysates. On the technique in general: Immunoblotting shows a protein as a band on a membrane.
Method: as §1

The target of assay [6] is T5, Δ25-44 deletion mutant of tau (rTau) (human, UniProt P10636 1-758).
T5 construct: Deletion mutagenesis of rTau; Tested as clarified bacterial lysate on Western blots; also called A25-44
The experiment in a line: Western blot of bacterial lysates.
Method: as §1

For assay [7], the target named is T6, tau peptide fragment, residues 25-44 of SEQ ID NO: 1 (human).
T6 construct: Proteolytic fragment (LysC and trypsin digests) of rTau, precipitated with 16B5 and identified by MALDI-TOF/TOF
T6 peptide: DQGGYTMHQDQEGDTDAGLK
Briefly: precipitation of digest fragments with 16B5, HPLC, MALDI-TOF/TOF (LysC and trypsin digests).
Method: as §2

In assay [8] the target is T7, Δ23-32 deletion mutant of tau (rTau) (human, UniProt P10636 1-758).
T7 construct: Deletion mutagenesis of rTau; Tested as clarified bacterial lysate on Western blots; also called A23-32
Briefly: Western blot of bacterial lysates, 16B5 at 0.2 µg/mL.
Method: as §1

Chain of recombinant purified hTau-P301L (human) (P10636 other isoform, or with tags, fused parts or gaps P301L P301L): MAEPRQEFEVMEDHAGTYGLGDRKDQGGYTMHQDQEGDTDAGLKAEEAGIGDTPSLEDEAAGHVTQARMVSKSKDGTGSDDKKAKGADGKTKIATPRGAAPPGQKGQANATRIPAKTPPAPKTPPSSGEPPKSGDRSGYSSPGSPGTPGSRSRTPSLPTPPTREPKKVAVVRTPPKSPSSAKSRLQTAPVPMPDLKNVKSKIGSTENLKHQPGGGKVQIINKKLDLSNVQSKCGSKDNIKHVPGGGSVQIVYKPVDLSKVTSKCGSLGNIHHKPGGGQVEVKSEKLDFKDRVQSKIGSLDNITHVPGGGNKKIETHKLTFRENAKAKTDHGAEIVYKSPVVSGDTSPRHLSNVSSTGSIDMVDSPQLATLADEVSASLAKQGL
T4 sequence (P10636 other isoform, or with tags, fused parts or gaps mutant): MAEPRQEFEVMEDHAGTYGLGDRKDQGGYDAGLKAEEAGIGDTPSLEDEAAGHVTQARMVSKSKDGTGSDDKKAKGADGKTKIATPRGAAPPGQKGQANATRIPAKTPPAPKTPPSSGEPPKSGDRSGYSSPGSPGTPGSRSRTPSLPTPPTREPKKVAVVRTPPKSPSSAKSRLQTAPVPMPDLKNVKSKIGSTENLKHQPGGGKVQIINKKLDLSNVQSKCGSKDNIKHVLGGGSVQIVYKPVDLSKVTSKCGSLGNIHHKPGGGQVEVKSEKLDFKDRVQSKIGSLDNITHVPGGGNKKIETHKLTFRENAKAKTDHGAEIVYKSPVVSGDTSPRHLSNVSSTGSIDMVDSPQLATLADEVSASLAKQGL
T7 sequence (P10636 other isoform, or with tags, fused parts or gaps mutant): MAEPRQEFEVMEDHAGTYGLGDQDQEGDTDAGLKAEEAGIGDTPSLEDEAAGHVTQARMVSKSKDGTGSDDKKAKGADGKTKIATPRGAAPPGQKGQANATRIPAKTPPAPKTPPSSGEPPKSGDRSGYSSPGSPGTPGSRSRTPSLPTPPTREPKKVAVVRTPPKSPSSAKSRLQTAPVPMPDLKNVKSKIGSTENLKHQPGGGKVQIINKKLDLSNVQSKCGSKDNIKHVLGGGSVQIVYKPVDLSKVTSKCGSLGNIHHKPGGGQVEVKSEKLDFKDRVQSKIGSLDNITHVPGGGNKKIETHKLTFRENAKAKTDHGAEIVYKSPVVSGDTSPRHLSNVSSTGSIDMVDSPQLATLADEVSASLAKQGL
T2 sequence (P10636 other isoform, or with tags, fused parts or gaps P301L P301L limits assumed): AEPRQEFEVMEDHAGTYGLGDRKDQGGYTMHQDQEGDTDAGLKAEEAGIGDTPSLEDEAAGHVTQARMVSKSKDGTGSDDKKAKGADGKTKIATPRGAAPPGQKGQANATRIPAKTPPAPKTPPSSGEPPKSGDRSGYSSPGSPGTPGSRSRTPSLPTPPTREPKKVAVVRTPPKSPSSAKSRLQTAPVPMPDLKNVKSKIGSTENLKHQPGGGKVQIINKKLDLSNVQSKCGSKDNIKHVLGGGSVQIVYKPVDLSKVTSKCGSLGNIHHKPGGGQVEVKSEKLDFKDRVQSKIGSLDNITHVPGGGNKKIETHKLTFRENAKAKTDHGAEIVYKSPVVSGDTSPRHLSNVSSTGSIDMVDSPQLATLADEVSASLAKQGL
T5 sequence (P10636 other isoform, or with tags, fused parts or gaps mutant): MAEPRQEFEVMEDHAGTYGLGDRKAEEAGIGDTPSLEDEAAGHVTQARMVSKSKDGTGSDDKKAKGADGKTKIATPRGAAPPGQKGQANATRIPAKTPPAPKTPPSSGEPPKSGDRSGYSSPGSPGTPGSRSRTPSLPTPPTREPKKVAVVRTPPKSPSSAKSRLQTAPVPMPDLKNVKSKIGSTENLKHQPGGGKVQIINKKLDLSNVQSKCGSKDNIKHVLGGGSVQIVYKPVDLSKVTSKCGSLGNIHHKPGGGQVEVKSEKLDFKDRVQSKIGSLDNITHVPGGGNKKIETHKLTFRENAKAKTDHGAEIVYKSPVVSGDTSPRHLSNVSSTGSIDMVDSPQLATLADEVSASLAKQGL
T1 sequence (P10636 other isoform, or with tags, fused parts or gaps mutant): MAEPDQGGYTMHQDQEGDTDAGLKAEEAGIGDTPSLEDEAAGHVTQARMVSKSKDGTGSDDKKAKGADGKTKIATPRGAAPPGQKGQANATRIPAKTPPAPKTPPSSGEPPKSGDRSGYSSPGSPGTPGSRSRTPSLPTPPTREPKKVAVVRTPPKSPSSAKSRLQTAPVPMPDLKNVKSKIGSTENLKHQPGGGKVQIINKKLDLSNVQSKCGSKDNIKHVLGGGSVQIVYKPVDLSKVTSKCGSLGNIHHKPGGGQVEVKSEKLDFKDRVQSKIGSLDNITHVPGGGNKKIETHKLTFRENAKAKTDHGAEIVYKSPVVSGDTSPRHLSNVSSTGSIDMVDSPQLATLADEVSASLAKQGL

B1: humanized 16B5 antibody, version H1L1 (antibody, V domains shown)
VH: QVQLVQSGSELKKPGASVKVSCKASGYTFTYHGMDWVRQAPGQGLEWMGWINTYSGVPTYADDFKGRFVFSLDTSVSTAYLQISSLKAEDTAVYFCARRRDFTMDFWGQGTTVTVSS
VL: NIVLTQSPDSLAVSLGERATINCKSSQSLLNSRTRKNYLAWFQQKPGQPPKLLIYWASTRESGVPDRFSGSGSGTDFTLTISSLQAEDVAVYYCKQSYTLRTFGGGTKVEIKR
As to B1, in assay [1], the Kd was 617 pM, the koff came to 0.00215 s⁻¹ and the kon was 3.5e+06 M⁻¹ s⁻¹.

B2: humanized 16B5 antibody, version H1L3 (antibody, V domains shown)
VH: B1 VH
VL: B1 VL with N1D, P49S
For the molecule B2, in assay [1], the Kd stood at 320 pM, the off-rate (koff) was determined as 0.00398 s⁻¹ and the kon was determined as 1.25e+07 M⁻¹ s⁻¹.

B3: humanized 16B5 antibody, version H1L2 (antibody, V domains shown)
VH: B1 VH
VL: B1 VL with P49S
B3: in assay [1], the Kd turned out to be 286 pM, the koff came out at 0.00342 s⁻¹ and the kon was 1.2e+07 M⁻¹ s⁻¹.

B4: murine monoclonal anti-tau antibody 16B5 (antibody, V domains shown)
VH: QIQLVQSGPELKKPGETVKISCKASGYPFTYHGMDWVKQAPWGGLEWMGWINTYSGVPTYADDFKGRFAFSLETSVGTAYLQINNLKNEDTATYFCARRRDFTMDFWGQGTSVTVSS
VL: NIVLSQSPSSLAVSPGEKVTMSCKSSQSLLNSRTRKNYLAWFQQKPGQSPKLLIYWASTRESGVPDRFTGSGSGTDFTLTISSVQAEDLAVYYCKQSYTLRTFGGGTNLEIKR
notes: Mouse monoclonal antibody; the isotype control used alongside it is IgG1; also called 16B5 monoclonal antibody; pan antibody 16B5
For B4, the binding result in assay [2] is “binds”; in assay [3] it was “binds”; in assay [4] it was “binds”; in assay [5] it was “no binding (tested: 0.2 µg/mL)”; in assay [6] it was “no binding (tested: 0.2 µg/mL)”; in assay [7] it was “binds”. Moreover, the binding result in assay [8] was “binds”.

The Kd is the equilibrium constant for the complex coming apart. For orientation: koff means the rate constant with which the complex falls apart. What is called kon is the rate constant with which the complex forms.
